This note sets out measurements from publication PMC5520896, “HIV integrase inhibitor, Elvitegravir, impairs RAG functions and inhibits V(D)J recombination” (Cell Death & Disease, 2017).

Where a chain is given by its changes, count along the chain named.

One data set has as its target T1, RAG1 central domain (Mus musculus, UniProt P15919).
T1 construct: central domain (amino acids 528–760)
T1 sequence (P15919 528-760): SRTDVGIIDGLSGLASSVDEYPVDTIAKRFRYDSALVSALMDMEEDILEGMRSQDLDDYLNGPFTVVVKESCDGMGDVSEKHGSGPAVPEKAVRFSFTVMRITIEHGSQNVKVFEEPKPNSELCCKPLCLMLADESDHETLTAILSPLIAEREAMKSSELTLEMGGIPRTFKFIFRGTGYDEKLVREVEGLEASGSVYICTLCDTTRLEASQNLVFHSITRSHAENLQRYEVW
The data set can be described thus: biolayer interferometry (biotinylated central domain on SSA sensors); also circular dichroism, and inhibition of purified cRAG binding, cleavage and hairpin formation. On the technique in general: BLI is a label-free optical method that tracks binding on a fibre tip over time.

Data set [1] deals with T2, RAG1 central domain mutant CD-DD (Mus musculus, UniProt P15919, D600A/D708A).
T2 construct: central domain (amino acids 528–760) with point mutations D600A/D708A
T2 sequence (P15919 528-760 D600A/D708A): T1 sequence (P15919 528-760) with D73A, D181A
As to the kind of experiment: biolayer interferometry (biotinylated CD-DD on SSA sensors). It is filed as binding.

Data set [2] concerns the target T3, MBP-core RAG1 (cRAG1);MBP-core RAG2 (cRAG2) (;, UniProt P15919;P21784 384-1040;1-383, |).
T3 sequence 1: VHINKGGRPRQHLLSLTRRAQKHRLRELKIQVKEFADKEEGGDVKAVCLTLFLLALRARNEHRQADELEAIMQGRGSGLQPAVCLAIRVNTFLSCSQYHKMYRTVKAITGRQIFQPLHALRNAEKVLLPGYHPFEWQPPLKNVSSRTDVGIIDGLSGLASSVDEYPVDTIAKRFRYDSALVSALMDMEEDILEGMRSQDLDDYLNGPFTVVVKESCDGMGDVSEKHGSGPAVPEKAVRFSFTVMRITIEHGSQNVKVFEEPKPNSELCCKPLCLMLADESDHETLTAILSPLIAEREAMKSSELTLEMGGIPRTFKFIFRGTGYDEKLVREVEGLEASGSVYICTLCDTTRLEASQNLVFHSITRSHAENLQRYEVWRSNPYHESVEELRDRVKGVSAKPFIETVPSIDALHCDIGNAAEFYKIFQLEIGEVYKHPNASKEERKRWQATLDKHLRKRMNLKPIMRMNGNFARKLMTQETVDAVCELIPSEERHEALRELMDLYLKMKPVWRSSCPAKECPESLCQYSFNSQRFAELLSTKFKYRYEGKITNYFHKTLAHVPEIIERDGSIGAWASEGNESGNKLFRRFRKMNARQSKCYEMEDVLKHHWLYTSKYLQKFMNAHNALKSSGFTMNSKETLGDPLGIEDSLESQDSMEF
T3 sequence 2: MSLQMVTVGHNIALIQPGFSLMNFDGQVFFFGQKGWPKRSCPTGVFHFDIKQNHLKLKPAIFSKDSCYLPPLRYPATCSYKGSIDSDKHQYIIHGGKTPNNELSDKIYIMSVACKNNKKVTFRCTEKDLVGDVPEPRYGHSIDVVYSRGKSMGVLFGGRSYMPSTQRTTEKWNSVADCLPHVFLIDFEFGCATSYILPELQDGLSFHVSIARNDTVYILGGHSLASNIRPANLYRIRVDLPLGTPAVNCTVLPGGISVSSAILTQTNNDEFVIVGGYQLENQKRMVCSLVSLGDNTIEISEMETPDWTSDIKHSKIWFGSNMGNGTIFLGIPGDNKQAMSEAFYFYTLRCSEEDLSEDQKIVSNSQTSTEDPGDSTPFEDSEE
As to the kind of experiment: EMSA; 5 mM Ca2+, Raltegravir 0.1-0.5 mM (no significant effect); 22.5 mM MOPS-KOH pH 7.0, 20% DMSO, 2.2 mM DTT, 50 mM K-glutamate, 2% glycerol, 100 ng/ml BSA, 5 mM CaCl2, 100 ng RAG, 2 h 25 C, then 0.01% glutaraldehyde fixation 37 C 10 min; 6% native PAGE. As to conditions: protein: recombinant;recombinant; tags: N-terminal MBP;N-terminal MBP; chain copies: 2;2; label: 5'-32P on AKN46; blunt ends, internal 6-nt CCCCCC/CCCCCC bubble flanked by 15 bp each side.

In a further data set the target is T4, MBP-core RAG1 (cRAG1) (UniProt P15919 384-1040).
T4 sequence: T3 sequence 1
The data set can be described thus: EMSA; 5 mM Ca2+; lower band assigned to RAG1 alone; 22.5 mM MOPS-KOH pH 7.0, 20% DMSO, 2.2 mM DTT, 50 mM K-glutamate, 2% glycerol, 100 ng/ml BSA, 5 mM CaCl2, 100 ng RAG, 2 h 25 C, then 0.01% glutaraldehyde fixation 37 C 10 min; 6% native PAGE. To be noted: protein: recombinant; tags: N-terminal MBP; chain copies: 2; label: 5'-32P on AKN1; 1-nt 5' overhang at each end (49 bp). A general note: A gel shift assay detects complexes by their altered migration in electrophoresis.

Data set [3] concerns the target T3, MBP-core RAG1 (cRAG1);MBP-core RAG2 …. As to the kind of experiment: EMSA; 5 mM Ca2+, no inhibitor; 22.5 mM MOPS-KOH pH 7.0, 20% DMSO, 2.2 mM DTT, 50 mM K-glutamate, 2% glycerol, 100 ng/ml BSA, 5 mM CaCl2, 100 ng RAG, 2 h 25 C, then 0.01% glutaraldehyde fixation 37 C 10 min; 6% native PAGE. As to conditions: protein: recombinant;recombinant; tags: N-terminal MBP;N-terminal MBP; chain copies: 2;2; label: 5'-32P on AKN1; 1-nt 5' overhang at each end (49 bp).

The term Kd denotes the free concentration of one partner at which half of the binding sites on the other are occupied at equilibrium, for simple one-to-one binding. Low readings indicate a tighter complex, high ones a looser complex.

For the molecule `COc1cc2c(cc1Cc1cccc(Cl)c1F)c(=O)c(C(=O)O)cn2[C@H](CO)C(C)C` [EVG, Elvitegravir], the Kd is 32.5 ± 2.9 µM on RAG1 central domain and 43.7 ± 3 µM in data set [1].

B1: (C/C)6 bubble heteroduplex (AKN46/AKN20) (mixed)
DNA 1: GACCTGAGGGCGAGCCCCCCCCGAGTAACTTAACAG
DNA 2: CTGTTAAGTTACTCGCCCCCCGCTCGCCCTCAGGTC
B1: the binding result in data set [2] is recorded as “binds”.

B2: 12RSS (AKN1/AKN2) (dsDNA)
DNA 1: GATCAGCTGATAGCTACCACAGTGCTACAGACTGGAACAAAAACCCTGCT
DNA 2: TAGCAGGGTTTTTGTTCCAGTCTGTAGCACTGTGGTAGCTATCAGCTGAT
With B2, the binding result (in the data set with MBP-core RAG1 (cRAG1); in data set [3]) was “binds” in each case.
